Our source for the stoichiometry N values is publication PMC11606445.

The target of this test is PaNOMT9 (Phellodendron amurense). The experiment in a line: crystal structure.

As usually defined, the stoichiometry N is the number of molecules, sites or subunits per partner or assembly. With PaNOMT9 (enzyme), the stoichiometry N is 2.
